Reference: US10864252B2, “Anti-SSX-2 T cell receptors and related materials and methods of use” (The United States of America, as represented by the …, priority 2010, dated 2020)

Key:
COS-A2 = experiment: IFN-γ release, TCR-transduced PBL co-cultured with COS-A2; type: cell-based; conditions: co-cultured with Cos-A2
Source text: (§1) SSX-2 TCR-transduced PBLs were co-cultured with various tumor cell lines. […] FIGS. 4A and 4B, FIG. 11, and Tables 3 and 4 show additional results of PBLs from human donors that were transduced with the SSX-2 TCR of Example 2 when these PBLs were co-cultured with various tumor cells. PBLs that were untransduced (UT) or transduced with a vector comprising SEQ ID NO: 27 (SSX-2 TCR), SEQ ID NO: 29 (codon-optimized SSX-2 TCR), or SEQ ID NO: 30 (codon-optimized SSX-2 TCR including mouse constant region) were co-cultured with various tumor cell lines. Tables 5 and 6 show the resulting interferon-γ levels (pg/ml) measured with respect to PBL from two different donors.

293-A2 = experiment: IFN-γ release, co-culture with 293-A2; type: cell-based; conditions: co-cultured with 293-A2
Source text: as §1

T331A mel = experiment: IFN-γ release, co-culture with T331A; type: cell-based; conditions: co-cultured with T331A mel
Source text: as §1

COS-A2 SSX2 = experiment: IFN-γ release, co-culture with COS-A2 SSX2; type: cell-based; conditions: co-cultured with COS-A2-SSX2
Source text: as §1

624 mel = experiment: IFN-γ release, co-culture with 624 melanoma; type: cell-based; conditions: co-cultured with 624 mel
Source text: as §1

938-A2 mel = experiment: IFN-γ release, co-culture with 938-A2 melanoma; type: cell-based; conditions: co-cultured with 938-A2 mel
Source text: as §1

938 mel = experiment: IFN-γ release, co-culture with 938; type: cell-based; conditions: co-cultured with 938 mel
Source text: as §1

293-A2 SSX2 = experiment: IFN-γ release, co-culture with 293-A2 SSX2; type: cell-based; conditions: co-cultured with 293-A2-SSX2
Source text: as §1

U251 Glioma = experiment: IFN-γ release, co-culture with U251 glioma; type: cell-based; conditions: co-cultured with U251 Glioma
Source text: as §1

SK MEL37 = experiment: IFN-γ release, co-culture with SK MEL37 melanoma; type: cell-based
Source text: as §1

SKOV3 Ovarian = experiment: IFN-γ release, co-culture with SKOV3 ovarian; type: cell-based; conditions: co-cultured with SKOV3 Ovarian
Source text: as §1

[1] = IFN-γ release, transduced PBL without target cells (medium / T cell alone); type: cell-based, human; conditions: T cell alone
Source text: as §1

K562 = experiment: IFN-γ release, co-culture with K562; type: cell-based; conditions: co-cultured with K562
Source text: (§2) PBLs that were untransduced (UT) or transduced with a vector comprising SEQ ID NO: 27 (SSX-2 TCR), SEQ ID NO: 29 (codon-optimized SSX-2 TCR), or SEQ ID NO: 30 (codon-optimized SSX-2 TCR including mouse constant region) were co-cultured with various tumor cell lines. Tables 5 and 6 show the resulting interferon-γ levels (pg/ml) measured with respect to PBL from two different donors.

Lau 149 mel = experiment: IFN-γ release, co-culture with Lau 149 mel; type: cell-based; conditions: co-cultured with Lau 149 mel
Source text: as §2

K562-A2-Erythroleukemia = experiment: IFN-γ release, co-culture with K562-A2 erythroleukemia; type: cell-based; conditions: co-cultured with K562-A2-Erythroleukemia
Source text: as §2

1300 mel = experiment: IFN-γ release, co-culture with 1300 mel; type: cell-based; conditions: co-cultured with 1300 mel
Source text: as §2

COS-A2-SSX2 cells = experiment: CD137 (4-1BB) upregulation after co-culture with COS-A2-SSX2 cells; type: cell-based; conditions: FACS after co-culture with COS-A2-SSX2 cells
COS-A2-SSX-2 cells = experiment: Proliferation ([3H]-thymidine) on co-culture with COS-A2-SSX-2 cells; type: cell-based; conditions: PBL from Donor 1 or Donor 2; FIGS. 6A, 6B
Procedure: PBLs from Donor 1 or Donor 2 that were untransduced (UT) or transduced with a vector comprising SEQ ID NO: 27 (SSX-2 TCR), SEQ ID NO: 29 (codon-optimized SSX-2 TCR), or SEQ ID NO: 30 (codon-optimized SSX-2 TCR including mouse constant region) were co-cultured with COS-A2-SSX-2 cells. Proliferation in terms of [^3H]-thymidine incorporation (CPM) was measured and is shown in FIG. 6A (Donor 1) and 6B (Donor 2).

[2] = system: SSX2+/HLA-A2+ target cells; experiment: Proliferation ([3H]-thymidine) on co-culture with tumor cells; type: cell-based; conditions: 1300 mel, 624 mel, 888 mel, SK mel 37 or COS-A2-SSX-2 cells; FIGS. 9A-9E
Source text: In another experiment, PBLs transduced as described in this example were co-cultured with 1300 mel cells, 624 mel cells, 888 mel cells, SK mel 37 cells, or COS-A2-SSX-2 cells.

[3] = system: SSX-2+/HLA-A2+ target cells; experiment: Percent lysis of target cells; type: cell-based; conditions: FIGS. 7A-D and 8A-D, various E:T ratios
[4] = Table 5 donor, co-cultured with Skmel 37 mel
[5] = Table 6 donor, co-cultured with Skmel 37

Molecule	interferon-γ levels (COS-A2; Table 5 donor) [pg/mL]	interferon-γ levels (COS-A2; Table 6 donor) [pg/mL]	interferon-γ levels (293-A2; Table 5 donor) [pg/mL]	interferon-γ levels (293-A2; Table 6 donor) [pg/mL]	interferon-γ levels (T331A mel; Table 5 donor) [pg/mL]	interferon-γ levels (T331A mel; Table 6 donor) [pg/mL]	interferon-γ levels (COS-A2 SSX2; Table 5 donor) [pg/mL]	interferon-γ levels (COS-A2 SSX2; Table 6 donor) [pg/mL]	interferon-γ levels (624 mel; Table 5 donor) [pg/mL]	interferon-γ levels (624 mel; Table 6 donor) [pg/mL]	interferon-γ levels (938-A2 mel; Table 5 donor) [pg/mL]	interferon-γ levels (938-A2 mel; Table 6 donor) [pg/mL]	interferon-γ levels (938 mel; Table 5 donor) [pg/mL]	interferon-γ levels (938 mel; Table 6 donor) [pg/mL]	interferon-γ levels (293-A2 SSX2; Table 5 donor) [pg/mL]	interferon-γ levels (293-A2 SSX2; Table 6 donor) [pg/mL]	interferon-γ levels (U251 Glioma; Table 5 donor) [pg/mL]	interferon-γ levels (U251 Glioma; Table 6 donor) [pg/mL]	interferon-γ levels (SK MEL37; [4]) [pg/mL]	interferon-γ levels (SK MEL37; [5]) [pg/mL]	further results
SSX2-TCR-Co Op: codon-optimized anti-SSX-2 TCR alpha and beta chains encoded by SEQ ID NO: 29, tested as transduced human PBLs (protein) MALSSLLKVVTASLWLGPGIAQKITQTQPGMFVQEKEAVTLDCTYDTSDPSYGLFWYKQPSSGEMIFLIYQGSYDQQNATEGRYSLNFQKARKSANLVISASQLGDSAMYFCAMTSGFGNEKLTFGTGTRLTIIPNIQNPDPAVYQLRDSKSSDKSVCLFTDFDSQTNVSQSKDSDVYITDKTVLDMRSMDFKSNSAVAWSNKSDFACANAFNNSIIPEDTFFPSPESSCDVKLVEKSFETDTNLNFQNLSVIGFRILLLKVAGFNLLMTLRLWSSRAKRSGSGATNFSLLKQAGDVEENPGPMGPGLLHWMALCLLGTGHGDAMVIQNPRYQVTQFGKPVTLSCSQTLNHNVMYWYQQKSSQAPKLLFHYYDKDFNNEADTPDNFQSRRPNTSFCFLDIRSPGLGDAAMYLCATSRGQGGQPQHFGDGTRLSILEDLNKVFPPEVAVFEPSEAEISHTQKATLVCLATGFFPDHVELSWWVNGKEVHSGVSTDPQPLKEQPALNDSRYCLSSRLRVSATFWQNPRNHFRCQVQFYGLSENDEWTQDRAKPVTQIVSAEAWGRADCGFTSVSYQQGVLSATILYEILLGKATLYAVLVSALVLMAMVKRKDF	2338	601	711	1067	30	30	64142	138324	37547	47059	46304	51173	890	768	37522	49112	19223	21418	8869	11445	interferon-γ levels (SKOV3 Ovarian; Table 5 donor): 2527 pg/mL; interferon-γ levels (SKOV3 Ovarian; Table 6 donor): 22509 pg/mL; interferon-γ levels ([1]; Table 5 donor): 164 pg/mL; interferon-γ levels ([1]; Table 6 donor): 290 pg/mL; interferon-γ levels (K562; Table 5 donor): 1714 pg/mL; interferon-γ levels (K562; Table 6 donor): 2784 pg/mL; interferon-γ levels (Lau 149 mel; Table 5 donor): 193 pg/mL; interferon-γ levels (Lau 149 mel; Table 6 donor): 120 pg/mL; interferon-γ levels (K562-A2-Erythroleukemia; Table 5 donor): 21325 pg/mL; interferon-γ levels (K562-A2-Erythroleukemia; Table 6 donor): 13610 pg/mL; interferon-γ levels (1300 mel; Table 5 donor): 2596 pg/mL; interferon-γ levels (1300 mel; Table 6 donor): 3052 pg/mL; activation marker CD137 (4-1BB) (COS-A2-SSX2 cells): upregulated; proliferation ([3H]-thymidine incorporation) (COS-A2-SSX-2 cells): proliferate in response to co-culture with COS-A2-SSX-2 cells; proliferation ([3H]-thymidine incorporation) [2]: proliferate in response to co-culture with SSX2+/HLA-A2+ target cells; lytic activity (percent lysis) [3]: specific lytic activity against SSX-2^+/HLA-A2^+ target cells
SSX2-TCR-MCR: codon-optimized human/mouse chimeric anti-SSX-2 TCR with mouse constant region, encoded by SEQ ID NO: 30, tested as transduced human PBLs (protein) MALSSLLKVVTASLWLGPGIAQKITQTQPGMFVQEKEAVTLDCTYDTSDPSYGLFWYKQPSSGEMIFLIYQGSYDQQNATEGRYSLNFQKARKSANLVISASQLGDSAMYFCAMTSGFGNEKLTFGTGTRLTIIPNDIQNPEPAVYQLKDPRSQDSTLCLFTDFDSQINVPKTMESGTFITDKTVLDMKAMDSKSNGAIAWSNQTSFTCQDIFKETNATYPSSDVPCDATLTEKSFETDMNLNFQNLSVMGLRILLLKVAGFNLLMTLRLWSSRAKRSGSGATNFSLLKQAGDVEENPGPMGPGLLHWMALCLLGTGHGDAMVIQNPRYQVTQFGKPVTLSCSQTLNHNVMYWYQQKSSQAPKLLFHYYDKDFNNEADTPDNFQSRRPNTSFCFLDIRSPGLGDAAMYLCATSRGQGGQPQHFGDGTRLSILEDLRNVTPPKVSLFEPSKAEIANKQKATLVCLARGFFPDHVELSWWVNGKEVHSGVSTDPQAYKESNYSYCLSSRLRVSATFWHNPRNHFRCQVQFHGLSEEDKWPEGSPKPVTQNISAEAWGRACGITSSYQQGVLSATILYEILLGKATLYAVLVSTLVVMAMVKRKNS	2827	553	802	1005	30	38	56893	164314	46999	57693	51092	40047	1122	932	37258	47273	19027	20027	10401	10630	interferon-γ levels (SKOV3 Ovarian; Table 5 donor): 2221 pg/mL; interferon-γ levels (SKOV3 Ovarian; Table 6 donor): 9857 pg/mL; interferon-γ levels ([1]; Table 5 donor): 327 pg/mL; interferon-γ levels ([1]; Table 6 donor): 554 pg/mL; interferon-γ levels (K562; Table 5 donor): 2752 pg/mL; interferon-γ levels (K562; Table 6 donor): 3328 pg/mL; interferon-γ levels (Lau 149 mel; Table 5 donor): 270 pg/mL; interferon-γ levels (Lau 149 mel; Table 6 donor): 142 pg/mL; interferon-γ levels (K562-A2-Erythroleukemia; Table 5 donor): 17437 pg/mL; interferon-γ levels (K562-A2-Erythroleukemia; Table 6 donor): 13555 pg/mL; interferon-γ levels (1300 mel; Table 5 donor): 2715 pg/mL; interferon-γ levels (1300 mel; Table 6 donor): 3460 pg/mL; activation marker CD137 (4-1BB) (COS-A2-SSX2 cells): upregulated; proliferation ([3H]-thymidine incorporation) (COS-A2-SSX-2 cells): proliferate in response to co-culture with COS-A2-SSX-2 cells; proliferation ([3H]-thymidine incorporation) [2]: proliferate in response to co-culture with SSX2+/HLA-A2+ target cells; lytic activity (percent lysis) [3]: specific lytic activity against SSX-2^+/HLA-A2^+ target cells
